Measured values published in patent US20250313644A1.

Key:
TNFα [1] = molecular target: TNFα (UniProt P01375); test: ELISA, coated TNF-α, Ab 6.25 nM
LIGHT [2] = molecular target: LIGHT (UniProt O43557); test: ELISA, coated LIGHT, Ab 100 nM
FASL [3] = molecular target: FASL (UniProt P48023); test: ELISA, coated FASL, Ab 0.000 nM (blank)
LIGHT [4] = molecular target: LIGHT (UniProt O43557); test: ELISA, coated LIGHT, Ab 1.563 nM
TNFα [5] = molecular target: TNFα (UniProt P01375); test: ELISA, coated TNF-α, Ab 0.391 nM
LT-α [6] = molecular target: T1, LT-α (UniProt P01374); test: ELISA, coated LT-α, Ab 25 nM
T1 sequence (looked up): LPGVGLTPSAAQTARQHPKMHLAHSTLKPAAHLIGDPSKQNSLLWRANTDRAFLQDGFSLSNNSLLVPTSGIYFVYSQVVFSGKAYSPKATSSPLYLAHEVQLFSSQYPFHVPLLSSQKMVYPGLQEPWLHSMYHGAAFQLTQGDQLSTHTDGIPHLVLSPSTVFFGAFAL

FASL [7] = molecular target: FASL (UniProt P48023); test: ELISA, coated FASL, Ab 6.25 nM
[8] = molecular target: human TL1A (HuTL1A) (human) (UniProt O95150)
LIGHT [9] = molecular target: LIGHT (UniProt O43557); test: ELISA, coated LIGHT, Ab 0.000 nM (blank)
TNFα [10] = molecular target: TNFα (UniProt P01375); test: ELISA, coated TNF-α, Ab 1.563 nM
FASL [11] = molecular target: FASL (UniProt P48023); test: ELISA, coated FASL, Ab 100 nM
FASL [12] = molecular target: FASL (UniProt P48023); test: ELISA, coated FASL, Ab 1.563 nM
[13] = molecular target: human TL1A (HuTL1A) (human) (UniProt O95150); test: competition ELISA: antibody dilution mixed 1:1 with Biotin-TL1A, added to coated DcR3 (1 µg/mL), Streptavidin-HRP, OD450; blocked partner of TL1A: DcR3
[14] = molecular target: human TL1A (HuTL1A) (human) (UniProt O95150); test: ELISA: biotin-HuTL1A on streptavidin plate, antibody diluted at pH 7.4, HRP-anti-human Fc, OD450
FASL [15] = molecular target: FASL (UniProt P48023); test: ELISA, coated FASL, Ab 0.391 nM
LT-α [16] = molecular target: T1, LT-α; test: ELISA, coated LT-α, Ab 6.25 nM
FASL [17] = molecular target: FASL (UniProt P48023); test: ELISA, coated FASL, Ab 25 nM
TNFα [18] = molecular target: TNFα (UniProt P01375); test: ELISA, coated TNF-α, Ab 0.000 nM (blank)
LT-α [19] = molecular target: T1, LT-α; test: ELISA, coated LT-α, Ab 0.391 nM
[20] = molecular target: human TL1A (HuTL1A) (human) (UniProt O95150); test: DLS, antigen and antibody mixed in equal moles
LIGHT [21] = molecular target: LIGHT (UniProt O43557); test: ELISA, coated LIGHT, Ab 0.391 nM
[22] = molecular target: human TL1A (HuTL1A) (human) (UniProt O95150); remark: listed apart in the source
LIGHT [23] = molecular target: LIGHT (UniProt O43557); test: ELISA, coated LIGHT, Ab 6.25 nM
LT-α [24] = molecular target: T1, LT-α; test: ELISA, coated LT-α, Ab 0.000 nM (blank)
LT-α [25] = molecular target: T1, LT-α; test: ELISA, coated LT-α, Ab 100 nM
TNFα [26] = molecular target: TNFα (UniProt P01375); test: ELISA, coated TNF-α, Ab 25 nM
LT-α [27] = molecular target: T1, LT-α; test: ELISA, coated LT-α, Ab 1.563 nM
[28] = molecular target: human TL1A (HuTL1A) (human) (UniProt O95150); test: ELISA: biotin-HuTL1A on streptavidin plate, antibody diluted at pH 5.8, HRP-anti-human Fc, OD450
LIGHT [29] = molecular target: LIGHT (UniProt O43557); test: ELISA, coated LIGHT, Ab 25 nM
TNFα [30] = molecular target: TNFα (UniProt P01375); test: ELISA, coated TNF-α, Ab 100 nM

Chain of human TL1A (HuTL1A) (human) (O95150 57-251 limits assumed): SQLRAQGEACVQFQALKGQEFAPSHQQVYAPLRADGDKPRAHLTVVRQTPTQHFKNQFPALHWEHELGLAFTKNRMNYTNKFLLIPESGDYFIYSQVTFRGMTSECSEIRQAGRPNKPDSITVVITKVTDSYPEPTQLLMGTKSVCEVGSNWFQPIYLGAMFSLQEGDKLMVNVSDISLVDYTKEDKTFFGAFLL
Chain of BM1 antibody (Pfizer/Roivant TL1A monoclonal antibody RVT-3101) (VH): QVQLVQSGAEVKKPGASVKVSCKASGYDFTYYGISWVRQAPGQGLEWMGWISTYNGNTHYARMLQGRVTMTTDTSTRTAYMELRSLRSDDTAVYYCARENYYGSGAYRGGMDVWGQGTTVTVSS
Chain of BM1 antibody (Pfizer/Roivant TL1A monoclonal antibody RVT-3101) (VL): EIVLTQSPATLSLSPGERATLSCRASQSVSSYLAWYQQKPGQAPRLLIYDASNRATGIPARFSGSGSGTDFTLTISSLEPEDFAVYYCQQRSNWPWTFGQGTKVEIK
Chain of TNFα (P01375 77-233 limits assumed): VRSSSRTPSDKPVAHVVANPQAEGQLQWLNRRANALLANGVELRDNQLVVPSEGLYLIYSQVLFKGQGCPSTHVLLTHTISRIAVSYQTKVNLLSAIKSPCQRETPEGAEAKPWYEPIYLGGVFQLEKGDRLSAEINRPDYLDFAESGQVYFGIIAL
Chain of FASL (P48023 134-281 limits assumed): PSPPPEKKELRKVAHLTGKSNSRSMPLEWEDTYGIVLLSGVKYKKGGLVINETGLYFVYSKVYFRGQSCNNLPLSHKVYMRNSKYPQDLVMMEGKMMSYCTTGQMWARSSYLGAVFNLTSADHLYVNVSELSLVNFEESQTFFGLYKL
Chain of LIGHT (O43557 74-240 limits assumed): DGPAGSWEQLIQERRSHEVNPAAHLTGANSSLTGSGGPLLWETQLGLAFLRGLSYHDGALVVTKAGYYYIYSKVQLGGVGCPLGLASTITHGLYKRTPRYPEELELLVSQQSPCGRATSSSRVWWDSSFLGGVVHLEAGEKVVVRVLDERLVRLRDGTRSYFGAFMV

## BM1 antibody (Pfizer/Roivant TL1A monoclonal antibody RVT-3101)
TNFα [1]
  OD450 nm: 0.0511
LIGHT [2]
  OD450 nm: 0.0996
FASL [3]
  OD450 nm: 0.0544
LIGHT [4]
  OD450 nm: 0.0887
TNFα [5]
  OD450 nm: 0.0539
LT-α [6]
  OD450 nm: 0.0845
FASL [7]
  OD450 nm: 0.0513
[8]
  IC50 (read off the curve); SEAP reporter in HEK293T/DR3-NFκB cells with soluble TL1A, OD655: 2 nM
LIGHT [9]
  OD450 nm: 0.0644
TNFα [10]
  OD450 nm: 0.0523
FASL [11]
  OD450 nm: 0.0855
FASL [12]
  OD450 nm: 0.0518
[13]
  IC50 (read off the curve): 0.2 µg/mL
[14]
  EC50 (read off the curve): 0.1 nM
FASL [15]
  OD450 nm: 0.051
LT-α [16]
  OD450 nm: 0.0909
FASL [17]
  OD450 nm: 0.0609
TNFα [18]
  OD450 nm: 0.0666
LT-α [19]
  OD450 nm: 0.0978
[20]
  Ave Z-dia (nm) of the antigen-antibody complex: 85.7 nm
LIGHT [21]
  OD450 nm: 0.0834
[22]
  IC50 (read off the curve); IFN-γ of human T cells with IL-12, IL-18 and exogenous human TL1A: 0.5 nM
LIGHT [23]
  OD450 nm: 0.0903
LT-α [24]
  OD450 nm: 0.0972
LT-α [25]
  OD450 nm: 0.0823
TNFα [26]
  OD450 nm: 0.0601
LT-α [27]
  OD450 nm: 0.095
[28]
  EC50 (read off the curve): 0.1 nM
LIGHT [29]
  OD450 nm: 0.0916
TNFα [30]
  OD450 nm: 0.0815
